For one substance, coIP efficiency of Mago (percent of the GFP enrichment), DSP cross-linked, fold increase of binding upon DSP treatment against native and coIP efficiency of Mago (percent of the GFP enrichment), native results are on record in publication PMC4072592.

Test [1] concerns the target N-PYM-GFP (S2 cells) (Drosophila) (UniProt P82804). The test can be described thus: co-IP + cross-linking; as the native GFP-Trap IP from S2 cell extracts, but extracts cross-linked with 1 mM DSP for 1 h at 4°C before the IP; blots quantified by densitometry.
In test [2] the target is ΔC-PYM-GFP (S2 cells) (Drosophila). The test is described as above.
ΔC-PYM-GFP (S2 cells) (Drosophila), sequence (P82804 whole entry, stated change not applied): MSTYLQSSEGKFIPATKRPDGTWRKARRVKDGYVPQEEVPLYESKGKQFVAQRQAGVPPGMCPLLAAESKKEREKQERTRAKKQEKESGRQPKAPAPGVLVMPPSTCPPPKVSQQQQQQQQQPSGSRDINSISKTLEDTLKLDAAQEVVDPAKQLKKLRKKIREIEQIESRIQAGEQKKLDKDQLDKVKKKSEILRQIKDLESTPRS
For test [3], the target named is N-PYM-GFP (S2 cells) (Drosophila) (UniProt P82804). The test is described as follows: co-IP; GFP-Trap beads on cytoplasmic extracts of S2 cells expressing GFP or GFP-tagged FL-, ΔC- or N-PYM, native conditions; blots of Mago and Y14 quantified by densitometry, coIP efficiency as percent of the GFP enrichment.
N-PYM-GFP (S2 cells) (Drosophila), sequence (P82804 whole entry): as the sequence (P82804 whole entry, stated change not applied) above

Y14-Mago heterodimer, endogenous in S2 cells, sequence (Q9V535 whole entry): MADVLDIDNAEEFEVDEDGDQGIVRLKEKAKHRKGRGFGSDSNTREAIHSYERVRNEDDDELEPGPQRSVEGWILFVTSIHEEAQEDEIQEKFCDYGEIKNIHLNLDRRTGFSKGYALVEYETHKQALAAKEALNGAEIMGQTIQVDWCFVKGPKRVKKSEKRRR
Y14-Mago heterodimer, endogenous in S2 cells, sequence (P49028 whole entry): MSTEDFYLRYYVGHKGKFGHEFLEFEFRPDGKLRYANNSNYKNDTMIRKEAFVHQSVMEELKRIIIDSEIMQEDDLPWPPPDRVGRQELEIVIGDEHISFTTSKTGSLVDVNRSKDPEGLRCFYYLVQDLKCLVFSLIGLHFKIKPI

For “Y14-Mago heterodimer, endogenous in S2 cells (from UniProt Q9V535 1-165; P49028 1-147) (complex)”, the coIP efficiency of Mago (percent of the GFP enrichment), DSP cross-linked in test [1] was determined as 84.9%. For the same substance, in test [2], the coIP efficiency of Mago (percent of the GFP enrichment), DSP cross-linked was 98.9% and the fold increase of binding upon DSP treatment against native was determined as 3.6 fold. In test [3], the coIP efficiency of Mago (percent of the GFP enrichment), native was found to be 0.92%.
